Experimental data from US20250026792A1, “SELF-ASSEMBLING PEPTIDES WITH HYALURONIC ACID BINDING DOMAINS AND METHODS OF USE THEREOF” (Northwestern University, priority 2022, published 2025).
“Also recorded” adds a separate entry of the source. Blank lines part the entries; values can stand above or below the molecule they belong to. The star is where a group is joined. Biotin = O=C1N[C@H]2[C@H](CS[C@H]2CCCCC(=O)*)N1

Assays:
[1] = Circular dichroism (CD) of peptides; type: physicochemical; settings: 20 mM Sodium Cacodylate; for Ellipticity ratio (222 nm/208 nm) / Ellipticity 208 nm / Ellipticity 222 nm: 1.25 mg/mL; for Ellipticity 208 nm / Ellipticity 222 nm: CD data given as [θ]M×10^−3; for wavelength Minimum of CD profile: 5.0 mg/mL
Method: Data is presented in ellipticity ([θ]M×10^−3) as a function of spectral wavelength (λ).
Sodium cacodylate (SC), 20 mM pH 7.4, without and with 20% TFE was used to reduce phosphate related background signal and enhance detected structures. Circular dichroism (CD) data were collected in millidegrees, 0, and converted to molar ellipticity, [θ]M, and are expressed in units of deg×cm^2×dmol^−1. Scan speeds and digital integration times were 500 nm/min and 1 second, respectively. The data on the Y axis of the CD plots is [θ]M×10^−3. […] Consequently, CD signals are reported in the 190-260 nm range.

[2] = Transmission electron microscopy (TEM) of peptide nanostructures; type: physicochemical
Method: The sample and stain were filter-dried in between steps. Samples were collected 24 hours at 37° C. after 30 minutes of sonication. All TEM was performed on a Philips FEI Technai Spirit G2 electron microscope. Peptides were incubated in both PBS and SC.

[3] = test system: extracellular matrix (ECM) components: Collagen type I, II, III and IV, elastin, hyaluronic acid and Geltrex; test: ECM specificity binding test, whole panel; settings: 5.0 mg/ml peptide, FIG. 4
Method: (§1) Peptides were incubated 24 hours at 37° C. on collagens I-IV, elastin, hyaluronic acid, and Geltrex. Coatings (10 pig/cm^2) were previously dried overnight in milli-Q water. Overall significance was assessed using analysis of variance, with Tukey's multiple comparison post-hoc analysis between ECM groups where n=4.
(§2) Hyaluronic acid, collagens I, II, III, and IV, elastin, and Geltrex were coated onto 96-well black plates (medium binding affinity) at 10 μg/cm^2 and were dried in milli-Q water at room temperature. N-termini biotinylated peptides were added to coated plates at 0, 1, 2.5, 5 and 10 mg/ml overnight at 37° C. in phosphate buffered saline (PBS), pH 7.4, after which the plates were washed three times with PBS. Fluorescent streptavidin-488 (4 μg/mL) was added to each well and incubated at 37° C. temperature for 24 hours, then thoroughly washed with PBS. The plates were read with a fluorescence microplate reader for fluorescence intensity (Ex 490 nm, Em 525 nm). All data were normalized to the background fluorescence intensity of Streptavidin-488.

[4] = ECM specificity binding test, hyaluronic acid coating; settings: 5.0 mg/ml peptide, FIG. 4
Method: as §1, §2

[5] = Concentration-dependent peptide binding to hyaluronic acid coating (biotin-streptavidin fluorescence)
Method: Peptides were incubated 24 hours at 37° C. Coatings (10 μg/cm^2) were previously dried overnight in milli-Q water. Overall significance was assessed using analysis of variance, with Tukey's multiple comparison post-hoc analysis between 1-scrm and experimental groups where n=4.
N-termini biotinylated peptides were added to coated plates at 0, 1, 2.5, 5 and 10 mg/ml overnight at 37° C. in phosphate buffered saline (PBS), pH 7.4, after which the plates were washed three times with PBS.

[6] = molecular target: T1, elastin (Bos taurus, UniProt P04985); test: ECM specificity binding test, elastin coating; design: species or system bovine; settings: 5.0 mg/ml peptide, FIG. 4
T1 construct: purchased Sigma-Aldrich
T1 sequence (P04985 27-747): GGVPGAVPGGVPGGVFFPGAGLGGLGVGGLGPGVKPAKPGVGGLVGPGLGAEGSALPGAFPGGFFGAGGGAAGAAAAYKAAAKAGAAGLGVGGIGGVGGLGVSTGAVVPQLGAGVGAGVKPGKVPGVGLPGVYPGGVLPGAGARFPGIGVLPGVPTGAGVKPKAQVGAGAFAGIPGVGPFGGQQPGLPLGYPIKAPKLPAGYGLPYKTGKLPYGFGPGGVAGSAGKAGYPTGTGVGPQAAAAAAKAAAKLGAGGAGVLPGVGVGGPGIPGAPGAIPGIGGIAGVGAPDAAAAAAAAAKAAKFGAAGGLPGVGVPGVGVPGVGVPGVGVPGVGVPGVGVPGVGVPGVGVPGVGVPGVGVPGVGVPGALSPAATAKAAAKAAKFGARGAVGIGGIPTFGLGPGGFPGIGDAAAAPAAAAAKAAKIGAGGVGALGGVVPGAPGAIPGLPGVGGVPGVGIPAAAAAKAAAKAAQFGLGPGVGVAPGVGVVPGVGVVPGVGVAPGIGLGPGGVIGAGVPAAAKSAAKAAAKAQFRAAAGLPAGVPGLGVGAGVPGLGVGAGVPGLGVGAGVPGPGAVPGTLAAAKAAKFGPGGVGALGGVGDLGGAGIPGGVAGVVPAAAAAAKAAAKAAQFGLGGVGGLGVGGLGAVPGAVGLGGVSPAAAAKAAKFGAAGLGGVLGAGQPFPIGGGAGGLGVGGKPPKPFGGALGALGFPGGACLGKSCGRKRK
Method: as §1
Biotinylated peptides were custom synthesized by ABI Scientific, Inc. (Sterling, VA). Uranyl acetate and TEM grids were from Ted Pella, Inc (Redding, CA). Unless specified otherwise, all water used in these experiments was Milli-Q grade. HA (˜1 MDa), collagen types I (rat), II (chicken), III (human), and IV (mouse), elastin (bovine), deuterium oxide (D2O), acetic acid-d4, sodium acetate-d3, 3-(Trimethylsilyl)propionic-2,2,3,3-d6 (DSS-D6) acid sodium salt, and 2,2,2-trifluoroethanol (TFE) and were obtained from Sigma-Aldrich (St. Louis, MO). Streptavidin (Alexa Fluor 488 conjugate) and Geltrex were obtained from Thermo Fisher Scientific Inc. (Waltham, MA). Sodium hyaluronate (5 and 60 KDa) was purchased from Lifecore Biomedical LLC (Chaska, MN). In reference to terminology, N and C termini is used to describe the amino terminal (N) and the carboxyl terminal (C) of the peptide. The biotinylated peptides are used in every experiment.
as §2

[7] = molecular target: T2, elastin (bovine) (bovine, UniProt P04985 27-747, limits assumed); test: plate assay: biotinylated peptide (5.0 mg/ml) on dried ECM coating, streptavidin-488 fluorescence
T2 construct: Coated and dried on plates at 10 ug/cm2
T2 sequence (looked up): T1 sequence (P04985 27-747)
Method: as §1, with “pig/cm²)” for “pig/cm^2)”
as §2, with “N-termini” for “Hyaluronic acid, collagens I, II, III, and IV, elastin, and Geltrex were coated onto 96-well black plates (medium binding affinity) at 10 μg/cm^2 and were dried in milli-Q water at room temperature. N-termini”

specificity of binding to ECMs [3]: lower specificity than 17x-3
binding to hyaluronic acid in specificity testing [4]: predominantly
binding to hyaluronic acid with increasing concentrations of peptide (fluorescence intensity) ([5]; 0-10 mg/ml peptide, PBS pH 7.4, 37° C., HA coating 10 μg/cm^2, FIG. 3): increases dramatically
binding to elastin [6]: moderately
Molecule: LKTKIKIIVKTKSSAKLRSKLVNSHKI [Peptide 4, 8h-2 variant]
Ellipticity ratio (222 nm/208 nm) [1]: 0.54
Ellipticity 208 nm [1]: −112
Ellipticity 222 nm [1]: −60.3
wavelength Minimum of CD profile [1]: 225 nm
Ellipticity ratio (222 nm/208 nm) ([1]; 20% TFE): 0.97
Ellipticity 208 nm ([1]; 20% TFE): −364
Ellipticity 222 nm ([1]; 20% TFE): −353
wavelength Minimum of CD profile ([1]; 20% TFE): 224 nm
TEM characterization, Phosphate Buffered Saline (i) ([2]; PBS pH 7.4, 0.5% w/v, 30 minutes sonication, 24 hrs at 37° C.): fibers that contain two striations (fibrils)
nanofiber formation in TEM, overall ([2]; both PBS and sodium cacodylate): consistent nanofibers; also recorded: predominantly form fibers with striations and furthermore form a mesh network
HA binding, overall assessment ([5]; summary and discussion statements): comparable binding; also recorded: HA specific and robust binders

binding result [7]: binds
B1: Peptide BHP4 (peptide)
peptide: Biotin-TNLRNKYTFLARARANLAVRNKQNIKS-OH
SMILES: CC[C@H](C)[C@H](NC(=O)[C@H](CC(N)=O)NC(=O)[C@H](CCC(N)=O)NC(=O)[C@H](CCCCN)NC(=O)[C@H](CC(N)=O)NC(=O)[C@H](CCCNC(=N)N)NC(=O)[C@@H](NC(=O)[C@H](C)NC(=O)[C@H](CC(C)C)NC(=O)[C@H](CC(N)=O)NC(=O)[C@H](C)NC(=O)[C@H](CCCNC(=N)N)NC(=O)[C@H](C)NC(=O)[C@H](CCCNC(=N)N)NC(=O)[C@H](C)NC(=O)[C@H](CC(C)C)NC(=O)[C@H](Cc1ccccc1)NC(=O)[C@@H](NC(=O)[C@H](Cc1ccc(O)cc1)NC(=O)[C@H](CCCCN)NC(=O)[C@H](CC(N)=O)NC(=O)[C@H](CCCNC(=N)N)NC(=O)[C@H](CC(C)C)NC(=O)[C@H](CC(N)=O)NC(=O)[C@@H](NC(=O)CCCC[C@@H]1SC[C@@H]2NC(=O)N[C@@H]21)[C@@H](C)O)[C@@H](C)O)C(C)C)C(=O)N[C@@H](CCCCN)C(=O)N[C@@H](CO)C(=O)O
notes: Variant of BHP3; biotinylated synthetic peptide; also called BPH4

binding result [7]: binds
B2: Peptide 7c (peptide)
peptide: Biotin-KTKATVKIKNKQKSVNALKQKIVLLSK-OH
SMILES: CC[C@H](C)[C@H](NC(=O)[C@H](CCCCN)NC(=O)[C@@H](NC(=O)[C@@H](NC(=O)[C@H](C)NC(=O)[C@H](CCCCN)NC(=O)[C@@H](NC(=O)[C@H](CCCCN)NC(=O)CCCC[C@@H]1SC[C@@H]2NC(=O)N[C@@H]21)[C@@H](C)O)[C@@H](C)O)C(C)C)C(=O)N[C@@H](CCCCN)C(=O)N[C@@H](CC(N)=O)C(=O)N[C@@H](CCCCN)C(=O)N[C@@H](CCC(N)=O)C(=O)N[C@@H](CCCCN)C(=O)N[C@@H](CO)C(=O)N[C@H](C(=O)N[C@@H](CC(N)=O)C(=O)N[C@@H](C)C(=O)N[C@@H](CC(C)C)C(=O)N[C@@H](CCCCN)C(=O)N[C@@H](CCC(N)=O)C(=O)N[C@@H](CCCCN)C(=O)N[C@H](C(=O)N[C@H](C(=O)N[C@@H](CC(C)C)C(=O)N[C@@H](CC(C)C)C(=O)N[C@@H](CO)C(=O)N[C@@H](CCCCN)C(=O)O)C(C)C)[C@@H](C)CC)C(C)C
notes: Variant of 17x-3; biotinylated synthetic peptide
